# Assay results as given in patent publication US20240190962A1 (IMMUNOWAKE, published 2024).
# Target: human IL-12 receptor complex (IL-12Rβ1, IL-12Rβ2) (human, UniProt P42701 24-662; Q99665 24-862)
# Assay: cell-based or functional assay
# Sequence of human IL-12 receptor complex (IL-12Rβ1, IL-12Rβ2) (Q99665 24-862, chain 2 of 2, other chains not shown): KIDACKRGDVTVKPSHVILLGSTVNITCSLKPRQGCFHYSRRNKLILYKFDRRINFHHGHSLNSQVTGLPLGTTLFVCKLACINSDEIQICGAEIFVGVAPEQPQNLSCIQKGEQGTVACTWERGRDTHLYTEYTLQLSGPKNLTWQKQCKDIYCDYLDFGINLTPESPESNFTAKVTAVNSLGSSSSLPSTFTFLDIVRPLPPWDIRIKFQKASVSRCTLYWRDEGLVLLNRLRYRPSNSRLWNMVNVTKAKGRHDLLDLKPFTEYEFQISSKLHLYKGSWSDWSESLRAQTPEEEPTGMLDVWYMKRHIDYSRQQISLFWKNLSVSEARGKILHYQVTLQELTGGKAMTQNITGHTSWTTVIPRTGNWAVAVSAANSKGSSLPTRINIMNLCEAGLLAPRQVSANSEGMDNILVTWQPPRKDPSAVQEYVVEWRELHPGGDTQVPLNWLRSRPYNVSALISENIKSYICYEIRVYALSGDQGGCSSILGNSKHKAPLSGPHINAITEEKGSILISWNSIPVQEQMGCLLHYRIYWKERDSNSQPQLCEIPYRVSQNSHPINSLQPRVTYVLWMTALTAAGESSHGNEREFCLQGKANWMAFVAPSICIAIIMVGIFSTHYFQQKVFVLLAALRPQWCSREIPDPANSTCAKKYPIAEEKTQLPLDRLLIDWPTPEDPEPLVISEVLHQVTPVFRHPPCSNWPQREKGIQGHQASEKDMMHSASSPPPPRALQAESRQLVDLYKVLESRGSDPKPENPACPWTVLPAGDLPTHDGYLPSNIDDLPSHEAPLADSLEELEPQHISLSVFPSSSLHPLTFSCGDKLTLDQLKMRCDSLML
"IL-12 biological activity, HEK-IL-12 [%]","IL-12 biological activity, HEK-IL-12-PD-1 (high) [%]","IL-12 biological activity, HEK-IL-12-PD-1 (low) [%]",PBMC (IFN-γ ng/ml) [ng/mL],Binder
< 0.2,38,33,820,IL-12(E59A/F60A)/anti-PD-1(D100N) (other) light: not shown heavy 1: QVQLVESGGGVVQPGRSLRLDCKASGITFSNSGMHWVRQAPGKGLEWVAVIWYDGSKRYYADSVKGRFTISRDNSKNTLFLQMNSLRAEDTAVYYCATNNDYWGQGTLVTVSSASTKGPSVFPLAPSSKSTSGGTAALGCLVKDYFPEPVTVSWNSGALTSGVHTFPAVLQSSGLYSLSSVVTVPSSSLGTQTYICNVNHKPSNTKVDKKVEPKSCDKTHTCPPCPAPEKKGGPSVFLFPPKPKDTLMISRTPEVTCVVVDVSHEDPEVKFNWYVDGVEVHNAKTKPREEQYNSTYRVVSVLTVLHQDWLNGKEYKCKVSNKALPAPIEKTISKAKGQPREPQVYVLPPSREEMTKNQVSLLCLVKGFYPSDIAVEWESNGQPENRYMTWPPVLDSDGSFFLYSKLTVDKSRWQQGNVFSCSVMHEALHNHYTQKSLSLSPGK heavy 2: QVQLVESGGGVVQPGRSLRLDCKASGITFSNSGMHWVRQAPGKGLEWVAVIWYDGSKRYYADSVKGRFTISRDNSKNTLFLQMNSLRAEDTAVYYCATNNDYWGQGTLVTVSSASTKGPSVFPLAPSSKSTSGGTAALGCLVKDYFPEPVTVSWNSGALTSGVHTFPAVLQSSGLYSLSSVVTVPSSSLGTQTYICNVNHKPSNTKVDKKVEPKSCDKPGSGIWELKKDVYVVELDWYPDAPGEMVVLTCDTPEEDGITWTLDQSSEVLGSGKTLTIQVKAAGDAGQYTCHKGGEVLSHSLLLLHKKEDGIWSTDILKDQKEPKNKTFLRCEAKNYSGRFTCWWLTTISTDLTFSVKSSRGSSDPQGVTCGAATLSAERVRGDNKEYEYSVECQEDSACPAAEESLPIEVMVDAVHKLKYENYTSSFFIRDIIKPDPPKNLQLKPLKNSRQVEVSWEYPDTWSTPHSYFSLTFCVQVQGKSKREKKDRVFTDKTSATVICRKNASISVRAQDRYYSSSWSEWASVPCSGGGGSGGGGSGGGGSGGGGSGRNLPVATPDPGMFPCLHHSQNLLRAVSNMLQKARQTLEFYPCTSEEIDHEDITKDKTSTVEACLPLELTKNESCLNSRETSFITNGSCLASRKTSFMMALCLSSIYEDLKMYQVEFKTMNAKLLMDPKRQIFLDQNMLAVIDELMQALNFNSETVPQKSSLEEPDFYKTKIKLCILLHAFRIRAVTIDRVMSYLNASDKTHTCPPCPAPEDEGGPSVFLFPPKPKDTLMISRTPEVTCVVVDVSHEDPEVKFNWYVDGVEVHNAKTKPREEQYNSTYRVVSVLTVLHQDWLNGKEYKCKVSNKALPAPIEKTISKAKGQPREPQVYVYPPSREEMTKNQVSLTCLVKGFYPSDIAVEWESNGQPENNYKTTPPVLDEDGSFALVSKLTVDKSRWQQGNVFSCSVMHEALHNHYTQKSLSLSPGK
< 0.2,10,3,69,IL-12(E59A/F60A)/anti-PD-1(D100R) (other) light: not shown heavy 1: QVQLVESGGGVVQPGRSLRLDCKASGITFSNSGMHWVRQAPGKGLEWVAVIWYDGSKRYYADSVKGRFTISRDNSKNTLFLQMNSLRAEDTAVYYCATNRDYWGQGTLVTVSSASTKGPSVFPLAPSSKSTSGGTAALGCLVKDYFPEPVTVSWNSGALTSGVHTFPAVLQSSGLYSLSSVVTVPSSSLGTQTYICNVNHKPSNTKVDKKVEPKSCDKTHTCPPCPAPEKKGGPSVFLFPPKPKDTLMISRTPEVTCVVVDVSHEDPEVKFNWYVDGVEVHNAKTKPREEQYNSTYRVVSVLTVLHQDWLNGKEYKCKVSNKALPAPIEKTISKAKGQPREPQVYVLPPSREEMTKNQVSLLCLVKGFYPSDIAVEWESNGQPENRYMTWPPVLDSDGSFFLYSKLTVDKSRWQQGNVFSCSVMHEALHNHYTQKSLSLSPGK heavy 2: QVQLVESGGGVVQPGRSLRLDCKASGITFSNSGMHWVRQAPGKGLEWVAVIWYDGSKRYYADSVKGRFTISRDNSKNTLFLQMNSLRAEDTAVYYCATNRDYWGQGTLVTVSSASTKGPSVFPLAPSSKSTSGGTAALGCLVKDYFPEPVTVSWNSGALTSGVHTFPAVLQSSGLYSLSSVVTVPSSSLGTQTYICNVNHKPSNTKVDKKVEPKSCDKPGSGIWELKKDVYVVELDWYPDAPGEMVVLTCDTPEEDGITWTLDQSSEVLGSGKTLTIQVKAAGDAGQYTCHKGGEVLSHSLLLLHKKEDGIWSTDILKDQKEPKNKTFLRCEAKNYSGRFTCWWLTTISTDLTFSVKSSRGSSDPQGVTCGAATLSAERVRGDNKEYEYSVECQEDSACPAAEESLPIEVMVDAVHKLKYENYTSSFFIRDIIKPDPPKNLQLKPLKNSRQVEVSWEYPDTWSTPHSYFSLTFCVQVQGKSKREKKDRVFTDKTSATVICRKNASISVRAQDRYYSSSWSEWASVPCSGGGGSGGGGSGGGGSGGGGSGRNLPVATPDPGMFPCLHHSQNLLRAVSNMLQKARQTLEFYPCTSEEIDHEDITKDKTSTVEACLPLELTKNESCLNSRETSFITNGSCLASRKTSFMMALCLSSIYEDLKMYQVEFKTMNAKLLMDPKRQIFLDQNMLAVIDELMQALNFNSETVPQKSSLEEPDFYKTKIKLCILLHAFRIRAVTIDRVMSYLNASDKTHTCPPCPAPEDEGGPSVFLFPPKPKDTLMISRTPEVTCVVVDVSHEDPEVKFNWYVDGVEVHNAKTKPREEQYNSTYRVVSVLTVLHQDWLNGKEYKCKVSNKALPAPIEKTISKAKGQPREPQVYVYPPSREEMTKNQVSLTCLVKGFYPSDIAVEWESNGQPENNYKTTPPVLDEDGSFALVSKLTVDKSRWQQGNVFSCSVMHEALHNHYTQKSLSLSPGK
< 0.2,33,17,120,IL-12(E59A/F60A)/anti-PD-1(D100G) (other) light: not shown heavy 1: QVQLVESGGGVVQPGRSLRLDCKASGITFSNSGMHWVRQAPGKGLEWVAVIWYDGSKRYYADSVKGRFTISRDNSKNTLFLQMNSLRAEDTAVYYCATNGDYWGQGTLVTVSSASTKGPSVFPLAPSSKSTSGGTAALGCLVKDYFPEPVTVSWNSGALTSGVHTFPAVLQSSGLYSLSSVVTVPSSSLGTQTYICNVNHKPSNTKVDKKVEPKSCDKTHTCPPCPAPEKKGGPSVFLFPPKPKDTLMISRTPEVTCVVVDVSHEDPEVKFNWYVDGVEVHNAKTKPREEQYNSTYRVVSVLTVLHQDWLNGKEYKCKVSNKALPAPIEKTISKAKGQPREPQVYVLPPSREEMTKNQVSLLCLVKGFYPSDIAVEWESNGQPENRYMTWPPVLDSDGSFFLYSKLTVDKSRWQQGNVFSCSVMHEALHNHYTQKSLSLSPGK heavy 2: QVQLVESGGGVVQPGRSLRLDCKASGITFSNSGMHWVRQAPGKGLEWVAVIWYDGSKRYYADSVKGRFTISRDNSKNTLFLQMNSLRAEDTAVYYCATNGDYWGQGTLVTVSSASTKGPSVFPLAPSSKSTSGGTAALGCLVKDYFPEPVTVSWNSGALTSGVHTFPAVLQSSGLYSLSSVVTVPSSSLGTQTYICNVNHKPSNTKVDKKVEPKSCDKPGSGIWELKKDVYVVELDWYPDAPGEMVVLTCDTPEEDGITWTLDQSSEVLGSGKTLTIQVKAAGDAGQYTCHKGGEVLSHSLLLLHKKEDGIWSTDILKDQKEPKNKTFLRCEAKNYSGRFTCWWLTTISTDLTFSVKSSRGSSDPQGVTCGAATLSAERVRGDNKEYEYSVECQEDSACPAAEESLPIEVMVDAVHKLKYENYTSSFFIRDIIKPDPPKNLQLKPLKNSRQVEVSWEYPDTWSTPHSYFSLTFCVQVQGKSKREKKDRVFTDKTSATVICRKNASISVRAQDRYYSSSWSEWASVPCSGGGGSGGGGSGGGGSGGGGSGRNLPVATPDPGMFPCLHHSQNLLRAVSNMLQKARQTLEFYPCTSEEIDHEDITKDKTSTVEACLPLELTKNESCLNSRETSFITNGSCLASRKTSFMMALCLSSIYEDLKMYQVEFKTMNAKLLMDPKRQIFLDQNMLAVIDELMQALNFNSETVPQKSSLEEPDFYKTKIKLCILLHAFRIRAVTIDRVMSYLNASDKTHTCPPCPAPEDEGGPSVFLFPPKPKDTLMISRTPEVTCVVVDVSHEDPEVKFNWYVDGVEVHNAKTKPREEQYNSTYRVVSVLTVLHQDWLNGKEYKCKVSNKALPAPIEKTISKAKGQPREPQVYVYPPSREEMTKNQVSLTCLVKGFYPSDIAVEWESNGQPENNYKTTPPVLDEDGSFALVSKLTVDKSRWQQGNVFSCSVMHEALHNHYTQKSLSLSPGK
